Reference: patent US20070111265A1 (published 2007)
Each block holds one binder with its values, some of them ahead of it.

Legend:
[1] = molecular target: T1, human MR LBD (residues 727-984) containing a C808S mutation, 6xHis-GST fusion protein (;human, UniProt P08235 727-984); assay: AlphaScreen peptide competition; corticosterone
T1 chain: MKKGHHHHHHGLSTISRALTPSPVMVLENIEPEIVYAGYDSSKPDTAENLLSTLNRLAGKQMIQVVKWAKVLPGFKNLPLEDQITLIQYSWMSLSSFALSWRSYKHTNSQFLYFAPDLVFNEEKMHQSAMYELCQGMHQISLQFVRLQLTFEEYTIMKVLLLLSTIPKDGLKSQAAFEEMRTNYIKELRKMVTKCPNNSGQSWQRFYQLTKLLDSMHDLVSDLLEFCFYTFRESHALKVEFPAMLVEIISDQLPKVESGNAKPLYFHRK

[2] = molecular target: T1, human MR LBD (residues 727-984) …; assay: AlphaScreen competition; corticosterone

IC50 [1]: 900 nM
Binder: AEEPSLLKKLLLAPA [unlabeled PGC1α-1 peptide]

IC50 [2]: 40 nM
B1: PGC1α-(1+2), human PGC1α fragment (residues 1-220) containing both LXXLL motifs, 6xHis-GST fusion protein (other)
chain: MAWDMCNQDSESVWSDIECAALVGEDQPLCPDLPELDLSELDVNDLDTDSFLGGLKWCSDQSEIISNQYNNEPSNIFEKIDEENEANLLAVLTETLDSLPVDEDGLPSFDALTDGDVTTDNEASPSSMPDGTPPPQEAEEPSLLKKLLLAPANTQLSYNECSGLSTQNHANHNHRIRTNPAIVKTENSWSNKAKSICQQQKPQRRPCSELLKYLTTNDDP

IC50 [1]: 1100 nM
Binder: RRPCSELLKYLTTND [unlabeled PGC1α-2 peptide]
